Laboratory results taken from US20190134213A1 (Bicycle, published 2019).
Starred links: 1 amine or outer side, 2 acyl side, 3 side chain; linkers in the order of their positions; H or OH if unused. Positions of bridges follow the written chain, without caps; N, C: chain ends. Non-standard residues stand in square brackets, D forms with d. Sar10 = ten sarcosines (spacer), CN(CC(=O)N(C)CC(=O)N(C)CC(=O)N(C)CC(=O)N(C)CC(=O)[*:2])C(=O)CN(C)C(=O)CN(C)C(=O)CN(C)C(=O)CN(C)C(=O)CN(C)[*:1]; SMPP‑derived hindered disulphide linker = hindered disulphide linker derived from SMPP, with two methyl groups, carrying the toxin DM1; 1Nal = N[C@@H](Cc1cccc2ccccc12)C(=O)O; TBMB = c1c(C[*:1])cc(C[*:3])cc1C[*:2]; Tle = CC(C)(C)[C@H](N)C(=O)O; βAla = NCCC(=O)O; DM1 = toxin

Key:
[1] = biological target: T1, MT1-MMP hemopexin-like repeats (MT1-MMP hemopexin domain), residues Cys319-Gly511 from the human gene, … (human, UniProt P50281 319-511); assay: fluorescence polarisation competition with a fluoresceinated bicyclic tracer on MT1-MMP hemopexin domain
T1 construct: range 319-511; Secreted soluble protein expressed in HEK293 cells, purified by Ni-NTA and gel filtration; also called hemopexin of MT1-MMP; MMP14
Excerpt: (§1) Here, a pre-formed complex of PEX with the fluorescent PEX-binding tracer is titrated with free, non-fluoresceinated bicyclic peptide. Since all 17-69-based peptides are expected to bind at the same site, the titrant will displace the fluorescent tracer from PEX. Dissociation of the complex can be measured quantitatively, and the Kd of the competitor (titrant) to the target protein determined. The advantage of the competition method is that the affinities of non-fluoresceinated bicyclic peptides can be determined accurately and rapidly.
(§2) Subsequently, the non-fluorescent competitor bicyclic peptide (usually just the bicycle core sequence) is titrated, such that it displaces the fluorescent tracer from the target protein. The displacement of the tracer is measured and associated with a drop in fluorescence polarisation. The drop in fluorescence polarisation is proportional to the fraction of target protein bound with the non-fluorescent titrant, and thus is a measure of the affinity of titrant to target protein.
(§3) The raw data is fit to the analytical solution of the cubic equation that describes the equilibria between fluorescent tracer, titrant, and binding protein. The fit requires the value of the affinity of fluorescent tracer to the target protein, which can be determined separately by direct binding FP experiments (see previous section). […]

[2] = biological target: T1, MT1-MMP hemopexin-like repeats (MT1-MMP …); assay: fluorescence polarisation competition, tracer 17-69-07-N040, human MT1-MMP hemopexin domain (n = 2)
Excerpt: as §1, §2, §3

B1: 17-69-07-N268 (peptide)
peptide: H-AC[dA]NE[1Nal][dA]CEDFYD[Tle]C-NH2
modifications: linker 2-8-15 via TBMB
SMILES: C[C@H](N)C(=O)N[C@H]1CSCc2cc3cc(c2)CSC[C@H](NC(=O)[C@@H](C)NC(=O)[C@H](Cc2cccc4ccccc24)NC(=O)[C@H](CCC(=O)O)NC(=O)[C@H](CC(N)=O)NC(=O)[C@@H](C)NC1=O)C(=O)N[C@@H](CCC(=O)O)C(=O)N[C@@H](CC(=O)O)C(=O)N[C@@H](Cc1ccccc1)C(=O)N[C@@H](Cc1ccc(O)cc1)C(=O)N[C@@H](CC(=O)O)C(=O)N[C@@H](C(C)(C)C)C(=O)N[C@H](C(N)=O)CSC3
notes: Synthetic bicyclic peptide cyclised on TBMB; lacks the bAla-Sar10 spacer of 17-69-07-N241; Precursor of BT17BDC-27; also called A-(17-69-07) D-Ala1 1Nal4 D-Ala5 tBuGly11; AC(D-Ala)NE(1Nal)(D-Ala)CEDFYD(tBuGly)C
Work on B1 yielded a Kd [1] of 1.7 nM.

B2: BT17BDC-27 (peptide)
peptide: {DM1-SMPP‑derived hindered disulphide linker}-AC[dA]NE[1Nal][dA]CEDFYD[Tle]C-NH2
modifications: linker 2-8-15 via TBMB
notes: also called Bicycle Drug Conjugate of 17-69-07-N268 with DM1
In the case of B2, the Kd [2] is reported as 0.69 nM.

B3: 17-69-07-N241 (peptide)
peptide: H-[βAla][Sar10]AC[dA]NE[1Nal][dA]CEDFYD[Tle]C-NH2
modifications: linker 4-10-17 via TBMB
SMILES: C[C@H](NC(=O)CN(C)C(=O)CN(C)C(=O)CN(C)C(=O)CN(C)C(=O)CN(C)C(=O)CN(C)C(=O)CN(C)C(=O)CN(C)C(=O)CN(C)C(=O)CN(C)C(=O)CCN)C(=O)N[C@H]1CSCc2cc3cc(c2)CSC[C@H](NC(=O)[C@@H](C)NC(=O)[C@H](Cc2cccc4ccccc24)NC(=O)[C@H](CCC(=O)O)NC(=O)[C@H](CC(N)=O)NC(=O)[C@@H](C)NC1=O)C(=O)N[C@@H](CCC(=O)O)C(=O)N[C@@H](CC(=O)O)C(=O)N[C@@H](Cc1ccccc1)C(=O)N[C@@H](Cc1ccc(O)cc1)C(=O)N[C@@H](CC(=O)O)C(=O)N[C@@H](C(C)(C)C)C(=O)N[C@H](C(N)=O)CSC3
notes: Synthetic bicyclic peptide cyclised on TBMB; precursor of BT17BDC-28; also called bAla-Sar10-A-(17-69-07) D-Ala1 1Nal4 D-Ala5 tBuGly11; (bAla)-Sar10-AC(D-Ala)NE(1Nal)(D-Ala)CEDFYD(tBuGly)C
Work on B3 yielded a Kd [1] of 1.21 nM.

B4: BT17BDC-28 (peptide)
peptide: {DM1-SMPP‑derived hindered disulphide linker}-[βAla][Sar10]AC[dA]NE[1Nal][dA]CEDFYD[Tle]C-NH2
modifications: linker 4-10-17 via TBMB
notes: also called Bicycle Drug Conjugate of 17-69-07-N241 with DM1
B4 was tested, and the Kd [2] was 1.65 nM.
